Reference: patent US20190300590A1 (PROTAGONIST THERAPEUTICS, published 2019)
Read-outs that look alike come from different tables or passages of the source. Each block holds one binder with its values, some of them ahead of it. Bridges are numbered along the chain shown (N, C = ends). Where no end group is shown, it is not given here. [ ]: non-standard residue; d: D form. AllylGly = C=CC[C@H](N)C(=O)O; DIG = diglycolic acid linker; Pen = CC(C)(S)[C@H](N)C(=O)O

Columns and labels:
[1] = biological target: T1, IL23R_huFC (human, UniProt Q5VWK5 24-353); test: human ELISA vs IL-23
T1 sequence (looked up): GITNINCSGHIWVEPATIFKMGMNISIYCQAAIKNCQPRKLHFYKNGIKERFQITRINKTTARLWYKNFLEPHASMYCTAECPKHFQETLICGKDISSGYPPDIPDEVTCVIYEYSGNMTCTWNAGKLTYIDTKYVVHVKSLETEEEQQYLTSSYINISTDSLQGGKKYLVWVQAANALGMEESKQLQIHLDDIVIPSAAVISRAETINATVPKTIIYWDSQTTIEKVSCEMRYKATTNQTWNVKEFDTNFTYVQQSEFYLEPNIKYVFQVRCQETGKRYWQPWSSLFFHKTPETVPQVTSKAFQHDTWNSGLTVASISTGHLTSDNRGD

[2] = biological target: T2, IL23R_huFC (human, UniProt Q5VWK5 24-353); test: IL23-IL23R competitive ELISA, IC50 grade
T2 sequence (looked up): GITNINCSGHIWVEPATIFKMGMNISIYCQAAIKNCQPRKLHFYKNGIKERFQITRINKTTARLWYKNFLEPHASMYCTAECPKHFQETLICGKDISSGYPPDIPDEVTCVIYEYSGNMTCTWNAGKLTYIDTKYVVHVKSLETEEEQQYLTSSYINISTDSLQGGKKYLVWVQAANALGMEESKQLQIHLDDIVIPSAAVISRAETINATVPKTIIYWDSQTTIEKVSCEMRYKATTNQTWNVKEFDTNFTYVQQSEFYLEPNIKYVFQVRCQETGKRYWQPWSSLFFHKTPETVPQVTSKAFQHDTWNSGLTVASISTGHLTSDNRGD

[3] = biological target: Rat IL-23R_huFC (rat); test: rat ELISA vs IL-23
[4] = biological target: recombinant human IL-12Rβ1_huFC (RnD) (human, UniProt P42701 24-540); test: SPR, IL-12Rb1_huFC captured on anti-human IgG, IL-23 as analyte
[5] = biological target: IL-12Rb1_huFC/IL-23R_huFC (human, UniProt P42701 24-540; Q5VWK5 24-353); test: SPR, mixed IL-12Rb1_huFC/IL-23R_huFC surface, IL-23 as analyte
[6] = biological target: Rat IL-23R_huFC (rat); test: rat ELISA vs IL-23; remark: listed apart in the source
[7] = biological target: T3, IL-23R on human cells (IL-23R-expressing DB cells; human NK cells) (human, UniProt Q5VWK5 24-629); test: cell-based or functional assay
T3 sequence (looked up): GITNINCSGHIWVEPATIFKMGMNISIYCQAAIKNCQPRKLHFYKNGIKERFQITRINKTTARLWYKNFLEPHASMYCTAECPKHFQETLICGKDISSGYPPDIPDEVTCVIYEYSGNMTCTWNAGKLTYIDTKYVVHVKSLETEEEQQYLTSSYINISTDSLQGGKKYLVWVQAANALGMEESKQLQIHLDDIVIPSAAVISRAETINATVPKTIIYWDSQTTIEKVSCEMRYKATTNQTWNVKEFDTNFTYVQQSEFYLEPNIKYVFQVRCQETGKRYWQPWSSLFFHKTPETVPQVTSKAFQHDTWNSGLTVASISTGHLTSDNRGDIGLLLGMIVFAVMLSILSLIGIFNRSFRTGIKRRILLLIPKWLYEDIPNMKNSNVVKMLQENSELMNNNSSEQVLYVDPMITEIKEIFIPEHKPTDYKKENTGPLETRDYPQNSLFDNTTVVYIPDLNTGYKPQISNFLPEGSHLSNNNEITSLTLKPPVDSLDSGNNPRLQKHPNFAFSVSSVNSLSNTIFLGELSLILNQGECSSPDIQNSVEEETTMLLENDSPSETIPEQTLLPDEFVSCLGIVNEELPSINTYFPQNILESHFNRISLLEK

[8] = biological target: T1, IL23R_huFC; test: human ELISA vs IL-23; remark: listed apart in the source
[9] = biological target: T1, IL23R_huFC; test: human ELISA vs IL-23; remark: listed apart in the source
[10] = biological target: T4, Rat IL-23R_huFC (rat; human, UniProt F1LX96 39-369); test: rat IL-23R competitive ELISA
T4 sequence: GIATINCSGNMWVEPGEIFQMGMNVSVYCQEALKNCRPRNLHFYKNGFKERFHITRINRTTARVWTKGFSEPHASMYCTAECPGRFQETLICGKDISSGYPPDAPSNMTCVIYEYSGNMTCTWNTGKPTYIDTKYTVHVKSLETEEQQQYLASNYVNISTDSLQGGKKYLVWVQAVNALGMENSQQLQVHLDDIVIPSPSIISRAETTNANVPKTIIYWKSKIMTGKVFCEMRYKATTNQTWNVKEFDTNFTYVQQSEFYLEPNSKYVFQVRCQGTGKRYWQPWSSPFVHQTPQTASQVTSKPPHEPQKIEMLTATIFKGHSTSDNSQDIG

[11] = biological target: T1, IL23R_huFC; test: human ELISA vs IL-23; remark: listed apart in the source
[12] = biological target: Rat IL-23R_huFC (rat); test: rat ELISA vs IL-23; remark: listed apart in the source
[13] = biological target: T1, IL23R_huFC; test: human ELISA vs IL-23; remark: listed apart in the source

B1: [Ac-Cyclo-[[Abu]-QTWQC]-[Phe]4-(2-aminoethoxy)]]-[2-Nal]-[Aib]-QNG-NH2]2DIG (peptide)
peptide: XQTWQCFXXQNG
modifications: not fully specified; as bracketed in name; thioether cyclo; DIG linker through Phe[4-(2-aminoethoxy)]
IC50 [1]: 25 to 100 nM

Binder: Ac-CADWVCYWHTK(DIG)G-OH (cysteine pairing not given here; also: dimer through DIG on Lys) [(Ac-CADWVCYWHTKG-OH)2DIG]
IC50 [2]: 1000 to 10000 nM

Binder: CADWVXYWHTFGXK (as bracketed in name; cyclized via Cys and Pen) [Ac-CADWV-[(D)Pen]-YWHTFG-[AEA]-[(D)-Lys]-NH2]
IC50 [3]: 1000 to 10000 nM

Binder: CQTWQCYWRXNGXK (Ac-; [Aib]; [AEA]; [(D)Lys]; -NH2) [Ac-CQTWQCYWR-[Aib]-NG-[AEA]-[(D)Lys]-NH2]
IC50 [10]: 1060 nM

Binder: XADWVCYWHTFGXK (as bracketed in name; cyclized via Cys and Pen) [Ac-[(D)Pen]-ADWVCYWHTFG-[AEA]-[(D)-Lys]-NH2]
IC50 [3]: 1000 to 10000 nM

Binder: CQTWQXYWLENG (as bracketed in name; cyclized via Cys and Pen) [Ac-CQTWQ-[Pen]-YW-[α-MeLeu]-ENG-NH2]
IC50 [11]: 100 to 1000 nM
IC50 [12]: 100 to 1000 nM

Next, values leading:

Kd [4]: 0.87 nM
koff [4]: 0.000438 s⁻¹
kon [4]: 501000 M⁻¹ s⁻¹
Kd [5]: 0.18 nM
koff [5]: 0.000115 s⁻¹
kon [5]: 631000 M⁻¹ s⁻¹
B2: Recombinant human IL-23 (Humanzyme) (ligand)
chain 1: RAVPGGSSPAWTQCQQLSQKLCTLAWSAHPLVGHMDLREEGDEETTNDVPHIQCGDGCDPQGLRDNSQFCLQRIHQGLIFYEKLLGSDIFTGEPSLLPDSPVGQLHASLLGLSQLLQPEGHHWETQQIPSLSPSQPWQRLLLRFKILRSLQAFVAVAARVFAHGAATLSP
chain 2: IWELKKDVYVVELDWYPDAPGEMVVLTCDTPEEDGITWTLDQSSEVLGSGKTLTIQVKEFGDAGQYTCHKGGEVLSHSLLLLHKKEDGIWSTDILKDQKEPKNKTFLRCEAKNYSGRFTCWWLTTISTDLTFSVKSSRGSSDPQGVTCGAATLSAERVRGDNKEYEYSVECQEDSACPAAEESLPIEVMVDAVHKLKYENYTSSFFIRDIIKPDPPKNLQLKPLKNSRQVEVSWEYPDTWSTPHSYFSLTFCVQVQGKSKREKKDRVFTDKTSATVICRKNASISVRAQDRYYSSSWSEWASVPCS

IC50 [6]: 10 to 25 nM
pStat3 HTRF IC50 [7]: < 10 nM
IC50 [8]: < 10 nM
B3: [Ac-[(D)Lys]-Cyclo-[[Abu]-QTWQC]-[Phe(4-OMe)]-[2-Nal]-[α-MeLys]-ENG-NH2]2 PEG25 (peptide)
peptide: KXQTWQCFXKENG
modifications: not fully specified; as bracketed in name; thioether cyclo; PEG25 linker through α-MeLys

IC50 [9]: ~30000 nM
Binder: [AllylGly]ADWV[AllylGly]YWHTFG (staple 1-6 (inferred)) [SEQ ID NO. 1001 peptide (drawing CHEM-US-00115)]

IC50 [13]: 1000 to 10000 nM
B4: Ac-CQTWQ-[Pen]-YW-[(D)Asn]-ENG-NH2 (peptide)
peptide: Ac-CQTWQ[Pen]YW[dN]ENG-NH2
modifications: disulfide 1-6
SMILES: CC(=O)N[C@H]1CSSC(C)(C)[C@@H](C(=O)N[C@@H](Cc2ccc(O)cc2)C(=O)N[C@@H](Cc2c[nH]c3ccccc23)C(=O)N[C@H](CC(N)=O)C(=O)N[C@@H](CCC(=O)O)C(=O)N[C@@H](CC(N)=O)C(=O)NCC(N)=O)NC(=O)[C@H](CCC(N)=O)NC(=O)[C@H](Cc2c[nH]c3ccccc23)NC(=O)[C@H]([C@@H](C)O)NC(=O)[C@H](CCC(N)=O)NC1=O
